This note sets out measurements from patent US20080311122A1, “Antagonists of Hmgb1 and/or Rage and Methods of Use Thereof” (Medimmune, LLC, priority 2005, published 2008).

This experiment concerns the target T1, HMG1 (recombinant, native; immobilized, soluble) (Homo sapiens, UniProt P09429).
T1 construct: made in house; host or cells: E. coli
T1 sequence (P09429 1-215): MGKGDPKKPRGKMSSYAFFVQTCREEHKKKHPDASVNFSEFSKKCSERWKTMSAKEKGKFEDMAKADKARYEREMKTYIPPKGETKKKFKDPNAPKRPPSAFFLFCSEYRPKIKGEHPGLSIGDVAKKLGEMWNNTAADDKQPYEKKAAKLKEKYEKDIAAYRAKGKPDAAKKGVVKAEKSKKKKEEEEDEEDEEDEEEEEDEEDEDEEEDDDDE
Briefly: Direct and sandwich (capture) ELISA comparing forms of HMG1. The class given is binding. Conditions: capture ELISA. Summed up: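 Direct format: HMGB-1 coated at 5 μg/ml, human anti-HMG1 antibodies titrated, anti-human IgG-HRP, A450. Sandwich format: antibodies (from 20 μg/ml, serial dilutions) captured on anti-human IgG Fc, then soluble HMGB1 at 2 μg/ml (native 0.7 μg/ml), mouse anti-HMGB1 at 1 μg/ml, anti-mouse IgG-HRP, A450; steps 1 h, 37° C.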

B1: S16: human anti-HMG1 antibody, ATCC PTA-6259; VL/VH aa SEQ ID NO: 13/15 (antibody, listed as Homo sapiens, V domains shown)
VH: EVQLLESGGGLVQPGGSLRLSCAASGFTFSWYSMLWVRQAPGKGLEWVSYISPSGGFTNYADSVKGRFTISRDNSKNTLYLQMNSLRAEDTAVYYCARWDYNSGWYYDHWGQGTLVTVSS
VL: AQDIQMTQSPDTLSLSPGERATLSCRASQSVNSRNLAWYQQKPGQAPRLLIYGASTRATGIPDRFSGSVSGTEFTLTISSLQPDDFATYYCQQYNSYFTFGQGTKLEIK
For B1, the “binding to native nuclear, necrotic (released) and activated HMG1” value is listed as “little difference in binding to the various native forms of HMG1”.
